± gives the standard deviation of the averaged measurements.
Columns and labels:
[1] = tested on: VchCAST RNA-guided transposition machinery (E. coli BL21(DE3) host, lacZ target); assay: relative integration efficiency (T-RL orientation) vs wild-type transposon end (log2 (normalized fold change)); transposon end mutated: right end (5 bp flank + 75 bp right end); higher = more efficient transposition
In short: (§1)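 Each barcoded pool, 1549 left-end or 1849 right-end transposon variants in a pUC57 mini-transposon donor, went into E. coli BL21(DE3) with a T7-driven effector plasmid (CRISPR array, tniQ-cas8-cas7-cas6, tnsA-tnsB-tnsC). Plates contained 0.1 mM IPTG and were held at 37°C for 18 h. Input plasmids and genomic integration junctions were PCR-amplified and read by Illumina sequencing, with two biological output replicates and four reference barcodes. Relative integration efficiency is the fold change of output over input barcode abundance, normalised to the reference barcodes and log-transformed.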

[2] = tested on: VchCAST RNA-guided transposition machinery (E. coli BL21(DE3) host, lacZ target); assay: relative integration efficiency (T-LR orientation) vs wild-type transposon end (log2 (normalized fold change)); transposon end mutated: right end (5 bp flank + 75 bp right end); higher = more efficient transposition
In short: as §1

Row | Sequence | relative integration efficiency (log2) [1] | relative integration efficiency (log2) [2]
1 | ACATTTGTTGATACAACGATAAAATGATAATTACACCGATAAATTGATAATTATCACACCGATAAATTGATATTGCCTCTGATCATAGTCAGACCAACATTGCTACGACCCGTATTCGCACCGACAC | -0.127 ± 0.12 | 0.086 ± 0.12
2 | ACATTTGTTGATACAACGTATAAATGATAATTACACCCATAAATTGATAATTATCACACCCATAAATTGATATTGCCTCTGATCATAGTCAGACCAACATTGCTACGACCCGTATTCGCACCGACAC | -1.91 ± 0.13 | -2.43 ± 0.46
3 | ACATTTGTTGATACAACGTTAAAATGATAATTACACCCATAAATTGATAATTATCACACCCATAAATTGATATTGCCTCTGATCATAGTCAGACCAACATTGCTACGACCCGTATTCGCACCGACAC | -0.928 ± 0.01 | -1.02 ± 0.3
4 | ACATTTGTTGATACAAGCATAAAATGATAATTACACGCATAAATTGATAATTATCACACGCATAAATTGATATTGCCTCTGATCATAGTCAGACCAACATTGCTACGACCCGTATTCGCACCGACAC | -0.3912 ± 0.0011 | -0.218 ± 0.08
5 | ACATTTGTTGATACAAGGATAAAATGATAATTACACCCATAAATTGATAATTATCACACCCATAAATTGATATTGCCTCTGATCATAGTCAGACCAACATTGCTACGACCCGTATTCGCACCGACAC | -0.223 ± 0.044 | -0.87 ± 0.12
6 | ACATTTGTTGATACAAGGTAAAAATGATAATTACACCCATAAATTGATAATTATCACACCCATAAATTGATATTGCCTCTGATCATAGTCAGACCAACATTGCTACGACCCGTATTCGCACCGACAC | -2.26 ± 0.11 | -2.67 ± 0.22
7 | ACATTTGTTGATACACAACGCCCCGTCGCCGGCACAAACGCCCGGTCGCCGGCGACACAAACGCCCGGTCGCGGTAAGAGGATCATAGTCAGACCAACATTGCTACGACCCGTATTCGCACCGACAC | -7.89 ± 0.53 | -5.17 ± 0.85
8 | ACATTTGTTGATACACAACTAAAATGATAATTACACCCATAAATTGATAATTATCACACCCATAAATTGATATTGCCTCTGATCATAGTCAGACCAACATTGCTACGACCCGTATTCGCACCGACAC | -3.13 ± 0.19 | -3.43 ± 1.4
9 | ACATTTGTTGATACACACATAAAATGATAATTACACCCATAAATTGATAATTATCACACCCATAAATTGATATTGCCTCTGATCATAGTCAGACCAACATTGCTACGACCCGTATTCGCACCGACAC | -0.5621 ± 0.0046 | -0.763 ± 0.33
10 | ACATTTGTTGATACACCCATAAAATGATAATTACAACCATAAATTGATAATTATCACAACCATAAATTGATATTGCCTCTGATCATAGTCAGACCAACATTGCTACGACCCGTATTCGCACCGACAC | -0.707 ± 0.2 | -0.642 ± 0.019
11 | ACATTTGTTGATACACCCATAAATTGATAATTACAACCATAAAATGATAATTATCACAACCATAAAATGATAATTACTCTGATCATAGTCAGACCAACATTGCTACGACCCGTATTCGCACCGACAC | -0.638 ± 0.31 | -0.939 ± 0.36
12 | ACATTTGTTGATACACCCATAAATTGATAATTACAACCATAAAATGATAATTATCACAACCATAAAGTGATATTTACTCTGATCATAGTCAGACCAACATTGCTACGACCCGTATTCGCACCGACAC | -0.736 ± 0.32 | -0.912 ± 0.79
13 | ACATTTGTTGATACACCCATAAATTGATAATTACAACCATAAAATGATAATTATCACAACCATAAGTTGATATTTTCTCTGATCATAGTCAGACCAACATTGCTACGACCCGTATTCGCACCGACAC | -0.795 ± 0.13 | -0.36 ± 0.66
14 | ACATTTGTTGATACACCCATAAATTGATAATTACAACCATAAAATGATAATTATCACAACCATATATTGATATCTCCTCTGATCATAGTCAGACCAACATTGCTACGACCCGTATTCGCACCGACAC | -0.596 ± 0.35 | -0.397 ± 0.063
15 | ACATTTGTTGATACACCCATAAATTGATAATTACAACCATAAAATGATAATTATCACACCCATAAATTGATAATTACTCTGATCATAGTCAGACCAACATTGCTACGACCCGTATTCGCACCGACAC | -0.421 ± 0.15 | -0.234 ± 0.37

Source: the supplement of paper PMC10201428
